Holding throughout (details): one partner purified
Assay [1] concerns the target T1, endogenous Synaptotagmin 1 of mouse brain and mouse neurons (mouse (endogenous in brain and primary …, UniProt P46096)).
T1 construct: Synaptotagmin 1, mouse, endogenous whole protein (in brain extract for the immunoprecipitation, on living neurons for the uptake); also called endogenous Syt1; Syt1; source: endogenous, WT mouse brain lysate; endogenous, mouse primary neurons
Put plainly: co-IP; immunoprecipitation: GFP-tagged nanobody pre-loaded on GFP Selector beads, incubated 1 h at 4 °C with pre-cleared lysate of WT or Syt1 KO mouse brain; blot with Syt1 cytoplasmic antibody.

The target in assay [2] is T2, endogenous Synaptotagmin 1 of primary hippocampal neurons (rat) (rat (endogenous in hippocampal neurons), UniProt P21707).
T2 construct: Synaptotagmin 1, endogenous in primary hippocampal neurons; the spectra were searched against the Rattus norvegicus proteome (UP000234681) and neurons were in most cases from Wistar pups; also called Syt1; Syt1-lum; source: endogenous, primary hippocampal neurons (living cells)
Put plainly: proximity labelling; NbLumSyt1-APEX2 taken up live by primary neurons (30 min with biotin-phenol), 1 mM H2O2 for 30 s; streptavidin bead enrichment, LC-MS/MS; controls NbALFA-APEX2 or no nanobody.

Assay [3] deals with T3, endogenous human Synaptotagmin 1 in human iPSC-derived hypothalamic-like neurons (human, UniProt P21579).
T3 construct: Synaptotagmin 1, human, endogenous; also called human Syt1; source: endogenous, human iPSC-derived hypothalamic neurons (living cells)
Nature of the assay: immunostaining of cells or tissue; live uptake in 80-day old human iPSC-derived hypothalamic neurons: surface pool blocked with 4.85 µM unlabeled nanobody, then 5.5 µM pHluorin-labelled nanobody with 30 mM KCl or 1 µM TTX, 20 min at 37 °C; fixed, anti-GFP and anti-Syt1.

This is an account of results in article doi:10.1101/2025.04.16.649111, “Nanobinders for Synaptotagmin 1 enable the analysis of synaptic vesicle dynamics in rodent and human models” (bioRxiv, 2025).

T3 sequence (P21579 whole entry): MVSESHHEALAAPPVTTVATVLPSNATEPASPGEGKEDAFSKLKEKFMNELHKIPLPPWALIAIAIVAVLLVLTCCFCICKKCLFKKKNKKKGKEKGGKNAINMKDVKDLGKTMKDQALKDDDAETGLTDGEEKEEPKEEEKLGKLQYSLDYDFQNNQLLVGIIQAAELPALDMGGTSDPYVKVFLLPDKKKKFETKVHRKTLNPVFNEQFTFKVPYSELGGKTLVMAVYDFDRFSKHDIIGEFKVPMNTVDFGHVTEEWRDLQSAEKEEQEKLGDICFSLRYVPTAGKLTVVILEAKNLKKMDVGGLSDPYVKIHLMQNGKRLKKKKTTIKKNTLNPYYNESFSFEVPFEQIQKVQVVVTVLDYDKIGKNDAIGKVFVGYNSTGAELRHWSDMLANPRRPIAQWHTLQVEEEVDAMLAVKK
T1 sequence (P46096 whole entry): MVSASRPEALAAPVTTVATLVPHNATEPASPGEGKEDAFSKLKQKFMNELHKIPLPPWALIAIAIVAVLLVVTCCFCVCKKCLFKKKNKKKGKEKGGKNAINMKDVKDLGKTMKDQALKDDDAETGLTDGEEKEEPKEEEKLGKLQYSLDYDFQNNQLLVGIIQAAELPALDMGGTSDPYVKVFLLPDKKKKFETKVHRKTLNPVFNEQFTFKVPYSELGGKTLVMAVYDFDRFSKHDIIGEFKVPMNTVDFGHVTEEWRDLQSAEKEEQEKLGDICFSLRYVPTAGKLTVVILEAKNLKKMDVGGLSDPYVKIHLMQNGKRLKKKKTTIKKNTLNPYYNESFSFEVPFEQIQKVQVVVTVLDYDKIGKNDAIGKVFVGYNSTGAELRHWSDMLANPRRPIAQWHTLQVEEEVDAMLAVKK
T2 sequence (P21707 whole entry): as the sequence (P46096 whole entry) above, with R6H counted along it

B1: NbLumSyt1 fused to a GFP-tag (VHH)
VHH: EVQLVESGGGLVQTGGSLRLSCTASGSIGSISVMGWYRQVPGTQYELVAGISRGGSTWYEDSVKGRFTISRDNAKNTLYLQMNSLKPEDTGMYYCAGGDYSDRLGSWGQGTQVTVSS
notes: as the VHH of m1: NbLumSyt1, clone 1F12; PDB 8B8I chain A; Held on GFP Selector beads in the immunoprecipitation; detected with anti-GFP in the uptake assay; also called GFP tagged Nanobody; GFP-tagged nanobody; source: E. coli NEB SHuffle Express T7, purified (Ni-NTA, protease elution, MonoQ)
Take B1: the binding result in assay [1] is “binds”.

B2: NbLumSyt1-APEX2 (VHH)
VHH: B1 VHH
notes: as the VHH of m1: NbLumSyt1, clone 1F12; PDB 8B8I chain A; also called Nb-APEX2
As for B2, the binding result in assay [2] is “binds”.

B3: NbLumSyt1-pHluorin (VHH)
VHH: B1 VHH
notes: as the VHH of m1: NbLumSyt1, clone 1F12; PDB 8B8I chain A; Detected with anti-GFP after fixation in the human neuron uptake; also called pHluorin-labelled Syt1 nanobody; Syt1 pHluorin Nb; source: E. coli NEB SHuffle Express T7, purified (Ni-NTA, protease elution, MonoQ)
Consider B3, for which, in assay [3], the binding result is “binds”.
